# Test results reported in article PMC3327807.
# B1: P. vivax adenosine deaminase (pvADA) (Plasmodium vivax Sal-1) (protein)
# chain: MNILQEPIDFLKKEELKNIDLSQMSKKERYKIWKRIPKCELHCHLDLCFSADFFVSCIRKYNLQPNLSDEEVLDYYLFAKGGKSLGEFVEKAIKVADIFHDYEVIEDLAKHAVFNKYKEGVVLMEFRYSPTFVAFKYNLDIELIHQAIVKGIKEVVELLDHKIHVALMCIGDTGHEAANIKASADFCLKHKADFVGFDHGGHEVDLKEYKEIFDYVRESGVPLSVHAGEDVTLPNLNTLYSAIQVLKVERIGHGIRVAESQELIDMVKEKNILLEVCPISNVLLKNAKSMDTHPIRQLYDAGVKVSVNSDDPGMFLTNINDDYEELYTHLNFTLEDFMKMNEWALEKSFMDSNIKDKIKNLYF
# Substrate: Nc1ncnc2c1ncn2[C@@H]1O[C@H](CO)[C@@H](O)[C@H]1O
# Experiment: UV spectrophotometric deamination kinetics
# Type: biochemical, Plasmodium vivax
# Settings: zinc
protein,measurement,value
B1,Km,71 ± 16 µM
